What was measured:
Abeta 1-40 monomer = Abeta 1-40 monomer (UniProt P05067); assay: MPA bead capture, Abeta 1-40 read-out of the CSF sample (noise)
[1] = biological target: Abeta (1-42) aggregates from Alzheimer's Disease Brain Homogenate (human) (UniProt P05067); assay: MPA, AD brain homogenate in plasma, Abeta(1-42) ELISA

Substance | average RLU (40) (Abeta 1-40 monomer) | limit of detection [1]
AAKKAA (peptide) | 147 RLU | 
KKKFKF-link (peptide) | 192 RLU | 
DFKLNFKF (peptide) | 260 RLU | 
AAAKAA (peptide) | 134 RLU | 
biotinylated PSR1 (+++A+A) on streptavidin magnetic beads |  | 3.8 mL/assay
KKKKKK (peptide) | 197 RLU | 
ANFFAHSS (peptide) | 543 RLU | 
link-FKFKKK (peptide) | 198 RLU | 
